Reference: US20050207981A1, “Compositions and methods for determining substrate specificity of hydrolytic enzymes” (The Regents of the University of California, priority 2003, published 2005)

System: C[C@H](NC(=O)[C@H](C)NC(=O)[C@H](CCCNC(=N)N)NC(=O)[C@H](CCCNC(=N)N)NC(=O)c1cc(F)ccc1O)C(N)=O
Experiment: purified protein, by the assay type
Conditions: other: detailed kinetic analysis of substrate hydrolysis; pH 8.0; 25.0 °C
Protocol: The combinatorial tetrapeptide library thus obtained was used to assay the substrate specificity of bovine p-chymotrypsin as follows. A 1 μL aliquot of each library member in DMSO was diluted to 100 μL in one well of a black polystyrene 96-well plate with a solution containing 50 mM Tris-HCl pH 8.0, 100 mM NaCl, 20 mM CaCl2, 10 μM [Tb(EDTA)]+and 10 μM enzyme. The resulting mixture was allowed to react at 25° C. for 30 min. Hydrolysis was followed by observing the increase in fluorescence at 546 nm upon excitation at 250 nm.
To elucidate any cooperativity between subsites, a series of single substrates was synthesized and assayed with chymotrypsin. […] Peptide sequences were designed to compare the most reactive amino acid in each sublibrary (Arg) with an amino acid with moderate reactivity and neutral functionality (Ala). Alanine, a small, neutral amino acid, was included in the P4′ position in all peptides, providing extended backbone interactions to enhance turnover. The kinetic data obtained from single substrate hydrolysis were analyzed using the standard Michaelis-Menten equation.

bovine α-chymotrypsin (Bos taurus) was tested, and the Km was 0.5 ± 0.1 mM, the kcat was 2.2 ± 0.2 s⁻¹ and the kcat/Km was 4400 ± 1000 M⁻¹ s⁻¹.
